Test results taken from PMC8328229 (Methods in enzymology, 2021).
Values belong to the molecule of their own block, whether it stands above or below them. Primed or numbered codes have the meaning given here. Where no end group is shown, it is not given here. FITC′ = fluorescein

Legend:
M. acetivorans TfuA = settings: FP; 25 °C, 1 h; ref Mahanta et al., 2018; cited from earlier work
[1] = molecular target: FITC-labeled M. acetivorans McrA 13-mer peptide (GG-…) (Methanosarcina acetivorans); assay: fluorescence polarisation
MjYcaO = settings: cited from earlier work
[2] = molecular target: MBP-tagged Methanosarcina acetivorans YcaO (Methanosarcina acetivorans); assay: fluorescence polarisation
[3] = molecular target: T1, MBP-tagged Methanocaldococcus jannaschii YcaO (Methanocaldococcus jannaschii, UniProt Q58494 1-385); assay: fluorescence polarisation
T1 sequence (looked up): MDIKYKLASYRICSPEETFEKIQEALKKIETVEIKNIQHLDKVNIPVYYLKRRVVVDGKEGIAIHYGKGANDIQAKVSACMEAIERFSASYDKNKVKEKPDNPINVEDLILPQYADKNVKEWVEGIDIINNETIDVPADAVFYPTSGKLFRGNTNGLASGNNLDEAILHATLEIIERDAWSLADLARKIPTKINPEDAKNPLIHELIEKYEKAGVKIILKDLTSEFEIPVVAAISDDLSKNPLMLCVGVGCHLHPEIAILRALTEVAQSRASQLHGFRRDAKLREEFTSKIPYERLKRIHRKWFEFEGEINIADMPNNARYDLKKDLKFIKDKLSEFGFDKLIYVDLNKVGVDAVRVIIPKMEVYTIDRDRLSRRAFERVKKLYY

Molecule: GG-RLGFFGFDLQD [native McrA peptide]
- binding (M. acetivorans TfuA): not detected

- Kd [1]: 700 nM
Molecule: MBP-tagged Methanosarcina acetivorans YcaO (enzyme)

Molecule: Nc1ncnc2c1ncn2[C@@H]1O[C@H](COP(=O)(O)OP(=O)(O)OP(=O)(O)O)[C@@H](O)[C@H]1O [ATP]
- ATP-derived by-products of thioamidation (MjYcaO; 31P NMR, YcaO-catalyzed thioamidation, ref Mahanta et al., 2018): ADP and phosphate (Pi) were found to be the by-products
- ATP hydrolysis in the absence of the McrA peptide substrate (MjYcaO; absence of McrA peptide, ref Dong et al., 2019): YcaO can hydrolyze ATP to ADP and Pi unproductively

- fold reduction of affinity against the wild-type peptide [2]: 14 fold
B1: MBP-tagged McrA peptide, Ala substitution of Gly462 (peptide)
chain: RLAFFGFDLQD

- fold reduction of affinity against the wild-type peptide [2]: 28 fold
B2: MBP-tagged McrA peptide, Ala substitution of Leu461 (peptide)
chain: RAGFFGFDLQD

- Ki [2]: 700 nM
B3: wild-type MBP-tagged McrA peptide (M. acetivorans McrA 11-mer) (peptide)
chain: RLGFFGFDLQD

- fold reduction of affinity against the wild-type peptide [2]: 14 fold
B4: MBP-tagged McrA peptide, Ala substitution of Gly465 (peptide)
chain: RLGFFAFDLQD

- fold reduction of affinity against the wild-type peptide [2]: 24 fold
B5: MBP-tagged McrA peptide, Ala substitution of Gln469 (peptide)
chain: RLGFFGFDLAD

- fold reduction of affinity against the wild-type peptide [2]: 14 fold
B6: MBP-tagged McrA peptide, Ala substitution of Leu468 (peptide)
chain: RLGFFGFDAQD

- Kd [3]: 1100 nM
B7: FITC-labeled M. jannaschii McrA 13-mer peptide (GG-RLGFYGYDLQD) (peptide)
peptide: {FITC′}-GGRLGFYGYDLQD

- fold reduction of affinity against the wild-type peptide [2]: 12 fold
B8: MBP-tagged McrA peptide, Ala substitution of Asp467 (peptide)
chain: RLGFFGFALQD

- fold reduction of affinity against the wild-type peptide [2]: 11 fold
B9: MBP-tagged McrA peptide, Ala substitution of Phe464 (peptide)
chain: RLGFAGFDLQD
